US20260174847A1, “METHODS OF TREATING DIGESTIVE DISEASES AND COMPOSITIONS THEREOF” (PTM Therapeutics, Inc., priority 2023, published 2026)

Key:
[1] = SPR (Biocore T100) binding affinity to sLeA; conditions: Example 3, Table 7, mean
Protocol: (§1) An in vitro evaluation of the binding affinity to sLeA and sLeC of the humanized antibodies from Example 1 were performed using a Biocore T100 SPR biosensor using a CM7 sensor chip with PBS-p (0.005% Tween-20) running buffer at 25 degrees Celsius. The antibodies were couples to ˜30,000 RU at 50 ug/ml in 10 mM NaAcetate pH 5.0 over an NHS/EDC activated surface. A reference surface was activated and blocked to serve as a control. Carbohydrate samples (sLeA, sLeC and sialyl Lewis X (all from Dextra Labs)) were dissolved in PBS-p running buffer up to a stock concentration of 10 mM. Each was then prepared in a 2-fold dilution series up to 300 μM and each concentration series was tested over the antibody surfaces. Response data were processed by subtracting the responses from the reference surfaces as well as a buffer injection. Binding constants were determined at 25 degrees Celsius.
(§2) Seven of the humanized antibody clones from Example 1 were tested for binding affinity to sLeA, sLeC and […]. Methods used were similar to those described in Example 2 above, except with sLeX only at one concentration of 300 μM.

[2] = SPR (Biocore T100) binding affinity to sLeC; conditions: Example 3, Table 7, mean
Protocol: as §1, §2

Row | Molecule | Kd [1] [µM] | Kd [2] [µM]
1 | Clone 4770: Humanized IgG1 antibody, heavy chain variable region HvCh3 (SEQ ID NO: 3), light chain LiCh2 (SEQ ID NO: 6) (antibody, V domains shown) VH: EVQLVESGGGLVQPGGSLRLSCAASGFTFSTNAMSWVRQAPGKGLEWVARLRPKSDNYATYYADSVKGRFTISRDDSKNTLYLQMNSLRAEDTAVYYCVTGTGFWGQGTTLTVSS VL: DIVMTQSPDSLAVSLGERVTMNCKSSQSLLNSGNQKNYLTWYQQKPGQPPKLLIYWTSTRESGVPDRFSGSGSGTDFTLTISSVQAEDVAVYYCQNDYTSPYTFGQGTKLEIK | 69.1 | 93.2
2 | Clone 4771: Humanized IgG1 antibody, heavy chain variable region HvCh3 (SEQ ID NO: 3), light chain LiCh3 (SEQ ID NO: 7) (antibody, V domains shown) VH: EVQLVESGGGLVQPGGSLRLSCAASGFTFSTNAMSWVRQAPGKGLEWVARLRPKSDNYATYYADSVKGRFTISRDDSKNTLYLQMNSLRAEDTAVYYCVTGTGFWGQGTTLTVSS VL: DIVMTQSPDSLAVSLGERATINCKSSQSLLNSGNQKNYLTWYQQKPGQPPKLLFYWTSTRESGVPDRFSGSGSGTDFTLTISSLQAEDVAVYYCQNDYTSPYTFGQGTKLEIK | 59.2 | 85.4
3 | Clone 4772: Humanized IgG1 antibody, heavy chain variable region HvCh3 (SEQ ID NO: 3), light chain LiCh4 (SEQ ID NO: 8) (antibody, V domains shown) VH: EVQLVESGGGLVQPGGSLRLSCAASGFTFSTNAMSWVRQAPGKGLEWVARLRPKSDNYATYYADSVKGRFTISRDDSKNTLYLQMNSLRAEDTAVYYCVTGTGFWGQGTTLTVSS VL: DIVMTQSPDSLAVSLGERVTMNCKSSQSLLNSGNQKNYLTWYQQKPGQPPKLLFYWTSTRESGVPDRFSGSGSGTDFTLTISSVQAEDVAVYYCQNDYTSPYTFGQGTKLEIK | 48.3 | 77.1
4 | Clone 4765: Humanized IgG1 antibody, heavy chain variable region HvCh2 (SEQ ID NO: 2), light chain LiCh1 (SEQ ID NO: 5) (antibody, V domains shown) VH: EVQLVESGGGLVQPGGSLRLSCAASGFTFSTNAMSWVRQAPGKGLEWVARLRPKSDNYATYYADSVKGRFTISRDNSKNTLYLQMNSLRAEDTAVYYCVTGTGFWGQGTTLTVSS VL: DIVMTQSPDSLAVSLGERATINCKSSQSLLNSGNQKNYLTWYQQKPGQPPKLLIYWTSTRESGVPDRFSGSGSGTDFTLTISSLQAEDVAVYYCQNDYTSPYTFGQGTKLEIK | 732 | 306
5 | Clone 4766: Humanized IgG1 antibody, heavy chain variable region HvCh2 (SEQ ID NO: 2), light chain LiCh2 (SEQ ID NO: 6) (antibody, V domains shown) VH: EVQLVESGGGLVQPGGSLRLSCAASGFTFSTNAMSWVRQAPGKGLEWVARLRPKSDNYATYYADSVKGRFTISRDNSKNTLYLQMNSLRAEDTAVYYCVTGTGFWGQGTTLTVSS VL: DIVMTQSPDSLAVSLGERVTMNCKSSQSLLNSGNQKNYLTWYQQKPGQPPKLLIYWTSTRESGVPDRFSGSGSGTDFTLTISSVQAEDVAVYYCQNDYTSPYTFGQGTKLEIK | 621 | 538
6 | Clone 4768: Humanized IgG1 antibody, heavy chain variable region HvCh2 (SEQ ID NO: 2), light chain LiCh4 (SEQ ID NO: 8) (antibody, V domains shown) VH: EVQLVESGGGLVQPGGSLRLSCAASGFTFSTNAMSWVRQAPGKGLEWVARLRPKSDNYATYYADSVKGRFTISRDNSKNTLYLQMNSLRAEDTAVYYCVTGTGFWGQGTTLTVSS VL: DIVMTQSPDSLAVSLGERVTMNCKSSQSLLNSGNQKNYLTWYQQKPGQPPKLLFYWTSTRESGVPDRFSGSGSGTDFTLTISSVQAEDVAVYYCQNDYTSPYTFGQGTKLEIK | 552 | 460
7 | Clone 4769: Humanized IgG1 antibody, heavy chain variable region HvCh3 (SEQ ID NO: 3), light chain LiCh1 (SEQ ID NO: 5) (antibody, V domains shown) VH: EVQLVESGGGLVQPGGSLRLSCAASGFTFSTNAMSWVRQAPGKGLEWVARLRPKSDNYATYYADSVKGRFTISRDDSKNTLYLQMNSLRAEDTAVYYCVTGTGFWGQGTTLTVSS VL: DIVMTQSPDSLAVSLGERATINCKSSQSLLNSGNQKNYLTWYQQKPGQPPKLLIYWTSTRESGVPDRFSGSGSGTDFTLTISSLQAEDVAVYYCQNDYTSPYTFGQGTKLEIK | 81.3 | 104
